Positions count from the first letter of the chain named.
T1: MFK23 peptide (mdhFas-1-GPLGVRG-QERGDSLA) (UniProt P82198)
T1 sequence: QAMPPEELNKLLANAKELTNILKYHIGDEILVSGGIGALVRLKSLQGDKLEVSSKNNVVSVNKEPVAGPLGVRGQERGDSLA

T2: MFK25 peptide (mdhFas-1-GPLGIAG-QERGDSLA) (UniProt P82198)
T2 sequence: T1 sequence with V72I, R73A

T3: MFK24 peptide (mdhFas-1-GPQGIAG-QERGDSLA) (UniProt P82198)
T3 sequence: T1 sequence with L70Q, V72I, R73A

T4: MFK24 peptide (mdhFas-1-GPQGIAG-QERGDSLA), P82198
T4 chain: T1 sequence with L70Q, V72I, R73A

B1: MMP-1 secreted from a human Synovial membrane cell (human FLS stimulated with IL-1β) (protein)
chain: FPATLETQEQDVDLVQKYLEKYYNLKNDGRQVEKRRNSGPVVEKLKQMQEFFGLKVTGKPDAETLKVMKQPRCGVPDVAQFVLTEGNPRWEQTHLTYRIENYTPDLPRADVDHAIEKAFQLWSNVTPLTFTKVSEGQADIMISFVRGDHRDNSPFDGPGGNLAHAFQPGPGIGGDAHFDEDERWTNNFREYNLHRVAAHELGHSLGLSHSTDIGALMYPSYTFSGDVQLAQDDIDGIQAIYGRSQNPVQPIGPQTPKACDSKLTFDAITTIRGEVMFFKDRFYMRTNPFYPEVELNFISVFWPQLPNGLEAAYEFADRDEVRFFKGNKYWAVQGQNVLHGYPKDIYSSFGFPRTVKHIDAALSEENTGKTYFFVANKYWRYDEYKRSMDPGYPKMIAHDFPGIGHKVDAVFMKDGFFYFFHGTRQYKFDPKTKRILTLQKANSWFNCRKN
B2: cathepsin K (enzyme, UniProt P43235 115-329, looked up, species assumed)
Cathepsin K: APDSVDYRKKGYVTPVKNQGQCGSCWAFSSVGALEGQLKKKTGKLLNLSPQNLVDCVSENDGCGGGYMTNAFQYVQKNRGIDSEDAYPYVGQEESCMYNPTGKAAKCRGYREIPEGNEKALKRAVARVGPVSVAIDASLTSFQFYSKGVYYDESCNSDNLNHAVLAVGYGIQKGNKHWIIKNSWGENWGNKGYILMARNKNNACGIANLASFPKM

How the values were obtained:
[1] = target: T1, MFK23 peptide (mdhFas-1-GPLGVRG-QERGDSLA)
[2] = target: T2, MFK25 peptide (mdhFas-1-GPLGIAG-QERGDSLA)
[3] = target: T3, MFK24 peptide (mdhFas-1-GPQGIAG-QERGDSLA)
[4] = target: T4, MFK24 peptide …

Molecule | enzymatic digestion test (immunoblot with anti-Histidine or anti-Bigh3) [1] | enzymatic digestion test (immunoblot with anti-Histidine or anti-Bigh3) [2] | enzymatic digestion test (immunoblot with anti-Histidine or anti-Bigh3) [3] | culture analysis of enzymatic digestion (human FLS + IL-1β, 1 uM peptide, 3 and 6 hours; immunoblot anti-histidine versus anti-βig-h3) [4]
MMP-2 (matrix metalloproteinase 2) | MFK23 was concentration-dependently cleaved through treatment with MMP-2 | MFK25 was concentration-dependently cleaved through treatment with MMP-1, MMP-2 and MMP-3 |  | 
MMP-1 (matrix metalloproteinase 1) |  | MFK25 was concentration-dependently cleaved through treatment with MMP-1, MMP-2 and MMP-3, and especially, well cleaved by MMP-1 and MMP-3 | MFK24 was concentration-dependently cleaved through treatment with MMP-1 | 
cathepsin L | MFK23 was not cleaved through treatment with cathepsin K, L or D | MFK25 was not cleaved through treatment with cathepsin K, L or D |  | 
MMP-3 (matrix metalloproteinase 3) |  | MFK25 was concentration-dependently cleaved through treatment with MMP-1, MMP-2 and MMP-3, and especially, well cleaved by MMP-1 and MMP-3 |  | 
cathepsin D | MFK23 was not cleaved through treatment with cathepsin K, L or D | MFK25 was not cleaved through treatment with cathepsin K, L or D |  | 
B1 |  |  |  | in the use of the anti-histidine antibody, MFK24 was measured in a smaller amount than that in the use of the anti-βig-h3 antibody
B2 | MFK23 was not cleaved through treatment with cathepsin K, L or D | MFK25 was not cleaved through treatment with cathepsin K, L or D |  | 

From patent US20140147453
